The values that follow come from patent US20220275027A1 (TRUSTEES OF PRINCETON UNIVERSITY, published 2022).

Sequences and labels used below:
B1: FLAG-Cat^C (cleaved from SUMO-Flag-Cat^C) (other)
chain: DYKDDDDKMFKLNTKNIKVLTPSGFKSFSGIQKVYKPFYHHIIFDDGSEIKCSDNHSFGKDKIKASTIKVGDYLQGKKVLYNEIVEEGIYLYDLLNVGEDNLYYTNGIVSHACESRGK
notes: also called 15N,13C FLAG-Cat^C
B2: Cat^N (EFE-Cat^N, cleaved from SUMO-Cat^N) (peptide)
peptide: EFEALSGDTMIEILDDDGIIQKISMEDLYQRLA
modifications: also: 15N,13C isotope-labelled form used in NMR
notes: the range 120-152 (EFEALSG...QRLA) is counted by me from that statement; Isotope-labelled (15N, 13C) in NMR; also called 15N,13C Cat^N

In test [1] the target is B2. Put plainly: circular dichroism and analytical size exclusion chromatography of Cat^N, Cat^C and the complex.
Test [2] addresses B1. Put plainly: NMR: 1H-15N HSQC, heteronuclear NOE, spin-spin relaxation, Cα-Cβ chemical shift perturbation.
The target in test [3] is T1, Fl-Cat^N (fluorescein labeled Cat^N peptide) (N-terminus capped with 5(6)-carboxyfluorescein).
T1 construct: Made by Fmoc solid phase synthesis; also called FI-Cat^N; Cat^N containing an N-terminal fluorescein
T1 peptide: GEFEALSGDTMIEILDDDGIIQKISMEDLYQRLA
Kind of test: kon1: slope of kobs1 against Cat^C concentration, stopped-flow fluorescence anisotropy, 100 mM NaCl. (In general: Fluorescence polarisation rises when a labelled molecule tumbles more slowly, as on binding a larger partner.)

Test [4] addresses T1, Fl-Cat^N (fluorescein labeled Cat^N …). Put plainly: kon1: slope of kobs1 against Cat^C concentration, stopped-flow fluorescence anisotropy, 500 mM NaCl.
Test [5] shares this target. Put plainly: kon2: slope of kobs2 against Cat^C concentration, stopped-flow fluorescence anisotropy, 100 mM NaCl.
For test [6] the target is unchanged. Kind of test: kon2: slope of kobs2 against Cat^C concentration, stopped-flow fluorescence anisotropy, 500 mM NaCl.
For test [7] the target is unchanged. Kind of test: steady-state fluorescence anisotropy, 500 pM Fl-Cat^N, both low (100 mM NaCl) and high (500 mM NaCl) salt.
Test [8] shares this target. Kind of test: one site binding fit of steady-state fluorescence anisotropy, 500 pM Fl-Cat^N, 100 mM NaCl (fit value below the probe concentration).
Test [9] has the same target. Put plainly: one site binding fit of steady-state fluorescence anisotropy, 500 pM Fl-Cat^N, 500 mM NaCl (fit value below the probe concentration).

Where no end group is shown, it is not given here.

With B1, the binding result in test [1] was “binds”.

Regarding B2, the binding result in test [2] is “binds”.

B3: SUMO-Flag-Cat^C (other)
chain: MGSSHHHHHHGSGLVPRGSASMSDSEVNQEAKPEVKPEVKPETHINLKVSDGSSEIFFKIKKTTPLRRLMEAFAKRQGKEMDSLRFLYDGIRIQADQTPEDLDMEDNDIIEAHREQIGGDYKDDDDKMFKLNTKNIKVLTPSGFKSFSGIQKVYKPFYHHIIFDDGSEIKCSDNHSFGKDKIKASTIKVGDYLQGKKVLYNEIVEEGIYLYDLLNVGEDNLYYTNGIVSHACESRGK
notes: also called SUMO-Flag-Cats
Turning to B3, the kon worked out at 2.8e+06 M⁻¹ s⁻¹ in test [3], 2.34e+06 M⁻¹ s⁻¹ in test [4], 160000 M⁻¹ s⁻¹ in test [5] and 180000 M⁻¹ s⁻¹ in [6]. Also, the figures for the equilibrium dissociation constant (Kd) in test [7], in [8] and in [9] were under 0.5 nM, 0.0339 nM and 0.0804 nM, respectively.

One may read the kon as the second-order rate constant of association. High values mean faster complex formation, low ones slower complex formation. One may read the Kd as a measure of binding affinity in units of concentration.
